Reference: patent US20160355605A1 (published 2016)

Experiments:
[1] = biological target: T1, Muc1 mucin bearing the CA6 sialoglycotope (DS6 antigen), as expressed by CA6-positive human tumour cell lines (human, UniProt P15941 24-1255, CA6 epitope: sialic acid-dependent glycotope on sialylated O-linked carbohydrate chains; sites not stated); assay: flow cytometry competition; competitor 2 nM biotin-muDS6, streptavidin-DTAF (called apparent EC50 in paragraph 357)
T1 construct: whole, on cells; Flow cytometry used whole cells; dot blots, immunoprecipitation and western blots used cell lysates; also called CA6 antigen; >250 kDa band

[2] = biological target: T1, Muc1 mucin bearing the CA6 …; assay: flow cytometry, direct binding to KB cells; apparent Kd
Experimental: In the first set of experiments direct binding to a CA6-expressing cell line, KB, was measured.

[3] = biological target: T1, Muc1 mucin bearing the CA6 …; assay: cell-based or functional assay

| Binder | IC50 [1] [nM] | Kd [2] [nM] | in vitro cytotoxicity (MTT), WISH cells, IC50 [3] [nM] |
| --- | --- | --- | --- |
| murine DS6 anti-CA6 monoclonal antibody (antibody, V domains shown, Murine monoclonal IgG purified from the hybridoma (ATCC PTA-4449); also called muDS6; DS6 antibody) VH: QAYLQQSGAELVRSGASVKMSCKASGYTFTSYNMHWVKQTPGQGLEWIGYIYPGNGATNYNQKFKGKATLTADPSSSTAYMQISSLTSEDSAVYFCARGDSVPFAYWGQGTLVTVSA VL: QIVLTQSPAIMSASPGEKVTITCSAHSSVSFMHWFQQKPGTSPKLWIYSTSSLASGVPARFGGSGSGTSYSLTISRMEAEDAATYYCQQRSSFPLTFGAGTKLELKR | 1.9 |  |  |
| chimeric DS6 antibody (antibody, V domains shown, also called chDS6) VH: QAYLQQSGAELVRSGASVKMSCKASGYTFTSYNMHWVKQTPGQGLEWIGYIYPGNGATNYNQKFKGKATLTADPSSSTAYMQISSLTSEDSAVYFCARGDSVPFAYWGQGTLVTVSA VL: QIVLTQSPAIMSASPGEKVTITCSAHSSVSFMHWFQQKPGTSPKLWIYSTSSLASGVPARFGGSGSGTSYSLTISRMEAEDAATYYCQQRSSFPLTFGAGTKLELKR | 1.7 |  |  |
| humanized DS6 antibody version 1.21 (antibody, V domains shown, also called huDS6v1.21; huDS6 v1.21) VH: QAQLVQSGAEVVKPGASVKMSCKASGYTFTSYNMHWVKQTPGQGLEWIGYIYPGNGATNYNQKFQGKATLTADPSSSTAYMQISSLTSEDSAVYFCARGDSVPFAYWGQGTLVTVSA VL: EIVLTQSPATMSASPGERVTITCSAHSSVSFMHWFQQKPGTSPKLWIYSTSSLASGVPARFGGSGSGTSYSLTISSMEAEDAATYYCQQRSSFPLTFGAGTKLELKR | 1.9 | 0.85 |  |
| huDS6v1.01-SPDB-DM4 conjugate (antibody, human IgG1, V domains shown, DM4 maytansinoid via SPDB disulfide linker, 3.2 DM4 per antibody; sites not stated) VH: QAQLVQSGAEVVKPGASVKMSCKASGYTFTSYNMHWVKQTPGQGLEWIGYIYPGNGATNYNQKFQGKATLTADTSSSTAYMQISSLTSEDSAVYFCARGDSVPFAYWGQGTLVTVSA VL: EIVLTQSPATMSASPGERVTITCSAHSSVSFMHWFQQKPGTSPKLWIYSTSSLASGVPARFGGSGSGTSYSLTISSMEAEDAATYYCQQRSSFPLTFGAGTKLELKR |  |  | 0.44 |
| humanized DS6 antibody version 1.01 (antibody, V domains shown, also called huDS6v1.01; huDS6 v1.01) VH: QAQLVQSGAEVVKPGASVKMSCKASGYTFTSYNMHWVKQTPGQGLEWIGYIYPGNGATNYNQKFQGKATLTADTSSSTAYMQISSLTSEDSAVYFCARGDSVPFAYWGQGTLVTVSA VL: EIVLTQSPATMSASPGERVTITCSAHSSVSFMHWFQQKPGTSPKLWIYSTSSLASGVPARFGGSGSGTSYSLTISSMEAEDAATYYCQQRSSFPLTFGAGTKLELKR | 3 | 0.82 |  |
